# B1: Vacuolar protein sorting-associated protein 33B (Homo sapiens), Q9H267 (parent)
# chain: MAFPHRPDAPELPDFSMLKRLARDQLIYLLEQLPGKKDLFIEADLMSPLDRIANVSILKQHEVDKLYKVENKPALSSNEQLCFLVRPRIKNMRYIASLVNADKLAGRTRKYKVIFSPQKFYACEMVLEEEGIYGDVSCDEWAFSLLPLDVDLLSMELPEFFRDYFLEGDQRWINTVAQALHLLSTLYGPFPNCYGIGRCAKMAYELWRNLEEEEDGETKGRRPEIGHIFLLDRDVDFVTALCSQVVYEGLVDDTFRIKCGSVDFGPEVTSSDKSLKVLLNAEDKVFNEIRNEHFSNVFGFLSQKARNLQAQYDRRRGMDIKQMKNFVSQELKGLKQEHRLLSLHIGACESIMKKKTKQDFQELIKTEHALLEGFNIRESTSYIEEHIDRQVSPIESLRLMCLLSITENGLIPKDYRSLKTQYLQSYGPEHLLTFSNLRRAGLLTEQAPGDTLTAVESKVSKLVTDKAAGKITDAFSSLAKRSNFRAISKKLNLIPRVDGEYDLKVPRDMAYVFGGAYVPLSCRIIEQVLERRSWQGLDEVVRLLNCSDFAFTDMTKEDKASSESLRLILVVFLGGCTFSEISALRFLGREKGYRFIFLTTAVTNSARLMEAMSEVKA
# partner: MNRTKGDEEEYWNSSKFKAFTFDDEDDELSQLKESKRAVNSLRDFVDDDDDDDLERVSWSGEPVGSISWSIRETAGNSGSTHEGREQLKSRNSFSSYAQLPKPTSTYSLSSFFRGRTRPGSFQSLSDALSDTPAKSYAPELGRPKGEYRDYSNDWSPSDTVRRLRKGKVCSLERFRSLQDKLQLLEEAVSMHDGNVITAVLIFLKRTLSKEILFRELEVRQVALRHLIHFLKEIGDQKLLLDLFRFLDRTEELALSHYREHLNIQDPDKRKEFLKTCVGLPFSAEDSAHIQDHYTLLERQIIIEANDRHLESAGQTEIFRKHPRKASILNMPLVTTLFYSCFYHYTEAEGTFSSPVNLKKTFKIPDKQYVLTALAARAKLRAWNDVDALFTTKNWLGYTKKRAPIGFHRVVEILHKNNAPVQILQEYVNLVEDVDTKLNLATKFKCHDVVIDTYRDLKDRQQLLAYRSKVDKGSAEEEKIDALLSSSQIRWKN
# B2: Vacuolar protein sorting-associated protein 33A (Homo sapiens), Q96AX1 (parent)
# chain: MAAHLSYGRVNLNVLREAVRRELREFLDKCAGSKAIVWDEYLTGPFGLIAQYSLLKEHEVEKMFTLKGNRLPAADVKNIIFFVRPRLELMDIIAENVLSEDRRGPTRDFHILFVPRRSLLCEQRLKDLGVLGSFIHREEYSLDLIPFDGDLLSMESEGAFKECYLEGDQTSLYHAAKGLMTLQALYGTIPQIFGKGECARQVANMMIRMKREFTGSQNSIFPVFDNLLLLDRNVDLLTPLATQLTYEGLIDEIYGIQNSYVKLPPEKFAPKKQGDGGKDLPTEAKKLQLNSAEELYAEIRDKNFNAVGSVLSKKAKIISAAFEERHNAKTVGEIKQFVSQLPHMQAARGSLANHTSIAELIKDVTTSEDFFDKLTVEQEFMSGIDTDKVNNYIEDCIAQKHSLIKVLRLVCLQSVCNSGLKQKVLDYYKREILQTYGYEHILTLHNLEKAGLLKPQTGGRNNYPTIRKTLRLWMDDVNEQNPTDISYVYSGYAPLSVRLAQLLSRPGWRSIEEVLRILPGPHFEERQPLPTGLQKKRQPGENRVTLIFFLGGVTFAEIAALRFLSQLEDGGTEYVIATTKLMNGTSWIEALMEKPF
# partner: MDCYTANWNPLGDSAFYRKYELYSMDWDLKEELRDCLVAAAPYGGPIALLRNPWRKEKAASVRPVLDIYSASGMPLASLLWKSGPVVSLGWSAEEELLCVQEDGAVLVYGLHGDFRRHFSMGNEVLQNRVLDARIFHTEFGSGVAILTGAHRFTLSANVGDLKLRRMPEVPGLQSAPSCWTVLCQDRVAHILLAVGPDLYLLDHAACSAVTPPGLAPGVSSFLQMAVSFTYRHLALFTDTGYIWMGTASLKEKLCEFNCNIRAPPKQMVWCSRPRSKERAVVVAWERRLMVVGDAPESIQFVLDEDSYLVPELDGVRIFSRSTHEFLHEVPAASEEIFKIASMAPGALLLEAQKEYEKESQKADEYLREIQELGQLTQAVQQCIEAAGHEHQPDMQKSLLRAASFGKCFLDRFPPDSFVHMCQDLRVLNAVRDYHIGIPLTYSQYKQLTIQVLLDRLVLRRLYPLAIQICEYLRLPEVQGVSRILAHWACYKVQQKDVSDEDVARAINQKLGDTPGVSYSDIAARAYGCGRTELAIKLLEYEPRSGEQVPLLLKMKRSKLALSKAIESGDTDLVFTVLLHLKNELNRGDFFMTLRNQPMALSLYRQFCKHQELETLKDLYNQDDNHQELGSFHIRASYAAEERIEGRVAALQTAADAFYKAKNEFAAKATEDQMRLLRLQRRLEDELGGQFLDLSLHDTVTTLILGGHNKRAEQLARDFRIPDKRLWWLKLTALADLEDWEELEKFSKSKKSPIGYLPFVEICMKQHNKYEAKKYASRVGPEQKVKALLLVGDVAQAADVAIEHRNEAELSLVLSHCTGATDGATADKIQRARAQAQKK
# Variants of: B1
# Details: with spe39_human VIPAS39, Q9H9C1
row,Variant,effect of a mutation on the interaction
1,K419D;L431K,disrupting interaction strength
2,P428D;L431K,decreasing interaction strength

# Variants of: B2
# Details: with vps16_human VPS16, Q9H269
row,Variant,effect of a mutation on the interaction
1,Y438D;I441K,disrupting interaction strength

# From IntAct's records for PubMed 29778605
